The source of these data is US20220306765A1 (SUZHOU TRANSCENTA THERAPEUTICS, published 2022).

Changes are numbered by the printed parent chain. Where two headings read alike, the source gives them in different places.

In assay [1] the target is T1, human CLDN18.2 (human).
T1 construct: also called hCLDN18.2; Claudin-18 splice variant 2
Briefly: FACS, HEK293-CLDN18.2 cells. For orientation: A flow cytometer gives signals particle by particle.
Protocol: (§1) Log-phase HEK293-CLDN18.2 and NUGC4 cells were re-suspended in PBS. After 3× cell wash by using FACS washing buffer (PBS+2% FBS), 100 μl/well diluted hybridoma Abs with a range from 400 nM to 0.002 nM were added into each well for incubation at 4° C. for 30 min. Again, cells were washed 3 times by using FACS washing buffer and then incubated with 100 μl/well goat anti-mIgG-FITC (1:400 dilution) at 4° C. for another 30 min. After a final 3× wash using FACS washing buffer, cells were analyzed by flow Cytometry.

In assay [2] the target is T2, human CLDN18.1 (human, UniProt P56856 1-261).
T2 construct: on HEK293-CLDN18.1 cells; also called Claudin-18 splice variant 1; NP_057453.1
T2 sequence (P56856 whole entry, canonical isoform): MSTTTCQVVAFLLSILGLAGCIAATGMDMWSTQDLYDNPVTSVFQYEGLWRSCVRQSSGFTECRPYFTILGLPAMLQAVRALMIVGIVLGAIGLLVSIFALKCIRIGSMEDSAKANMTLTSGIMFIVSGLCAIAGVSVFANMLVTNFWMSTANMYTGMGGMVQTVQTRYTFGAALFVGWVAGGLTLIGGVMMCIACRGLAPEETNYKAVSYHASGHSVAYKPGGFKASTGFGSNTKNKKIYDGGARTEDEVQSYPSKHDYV
Briefly: FACS, hybridoma supernatant, HEK293-CLDN18.1 cells.
Protocol: Log-phase CLDN18.1 expressing HEK293-CLDN18.1 cells were resuspended in PBS at a density of 10\hat{ }5/100 μl per well. After 3× cell wash by using FACS washing buffer (PBS+2% FBS), 100 μl/well hybridoma supernatant was added into each well for incubation at 4° C. for 30 min. Again, cells were washed 3 times by using FACS washing buffer and then incubated with 100 μl/well goat anti-mIgG-FITC (1:400 dilution) at 4° C. for another 30 min. After a final 3× wash using FACS washing buffer, cells were analyzed by flow Cytometry.

For assay [3], the target named is T1, human CLDN18.2. Kind of assay: flow cytometry on NUGC4 cells, goat anti-mIgG-FITC.
Protocol: as §1
Assay [4] has as its target T1, human CLDN18.2. Kind of assay: flow cytometry on HEK293-CLDN18.2 cells, goat anti-mIgG-FITC; unit taken from the concentration axis.
Protocol: as §1
Assay [5] has as its target T1, human CLDN18.2. Kind of assay: flow cytometry on NUGC4 cells, goat anti-mIgG-FITC. The source holds these as a separate data set.
Protocol: as §1

B1: 11F12 (antibody, V domains shown)
VH: EFQLQQSGPELEKPGASVRISCKTSGYSFTGYNMNWVKQSNGESLEWIGYIDPYYGGTRYNQKFKGKATLTVDKSSSTAYMQLKSLTSEDSAVYYCARSYYGNAFDYWGQGTTLTVSS
VL: DIVMTQSPSSLTVTAGEKVTMSCKSSQSLLNSGNQKNYLTWYQQKPGQPPKLLIYWASTRESGVPDRFTGSGSGTDFTLTISSVQAEDLAVYYCQNDYSYPFTFGSGTKLEIK
notes: mouse hybridoma antibody; also called hybridoma antibody 11F12
For orientation: EC50 means the concentration that produces a half-maximal response. Read a low EC50 as greater potency. Broadly, the EC50 (read off the curve) is the concentration at which the effect is half-maximal. Low values mean higher potency in that assay, high ones lower potency in that assay. Turning to B1, the EC50 in assay [1] came to 0.82 µg/mL; in assay [4], 0.605 µg/mL. Further, in assay [2], the binding result was “no binding”. Also, the “EC50 (read off the curve)” value in assay [3] is around 1 µg/mL.

B2: 26G6 (antibody, V domains shown)
VH: B1 VH with R19K, E43Q, Y50H, G56V, G57T, R59T, K65R, Y100F
VL: B1 VL with L30F, Y100F
notes: mouse hybridoma antibody; also called hybridoma antibody 26G6
As for B2, in assay [1], the concentration giving a half-maximal response (EC50) amounted to 0.76 µg/mL. The binding result in assay [2] was “no binding”. Also, the “EC50 (read off the curve)” value in assay [5] is around 2 µg/mL.

B3: 12E9 (antibody, V domains shown)
VH: B1 VH with Y50N
VL: B1 VL with S28N, S32N, T78I, Y100F, S106A, I112L
notes: mouse hybridoma antibody; also called hybridoma antibody 12E9
B3 showed an EC50 in assay [1] of 0.52 µg/mL. Also, in assay [2], the binding result is recorded as “no binding”. For the same molecule, the “EC50 (read off the curve)” value in assay [5] was around 2 µg/mL.
